The text below walks through data of publication PMC8630636, “Fis Connects Two Sensory Pathways, Quorum Sensing and Surface Sensing, to Control Motility in Vibrio parahaemolyticus”.

The labels stand for the following.
T1: Fis (Vibrio parahaemolyticus RIMD2210633) (UniProt P64128)
T1 sequence: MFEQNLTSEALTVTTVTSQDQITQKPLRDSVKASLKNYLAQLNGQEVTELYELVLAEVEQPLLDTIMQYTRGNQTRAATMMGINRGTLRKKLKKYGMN

T2: Fis (Vibrio parahaemolyticus RIMD2210633, UniProt P64128 1-98)
T2 sequence: T1 sequence

B1: ParaB_WT (probe 3) (dsDNA)
DNA 1: TTTTTGTCCATAAACTTAGCAACCCTATTTATGGGATAACCCAC
DNA 2: GTGGGTTATCCCATAAATAGGGTTGCTAAGTTTATGGACAAAAA
B2: Qrr3coding_mut (dsDNA)
DNA 1: CCTTCTTAAGCCGAGAGTATCTTAGATAAATGACGTTGTTAGTGAA
DNA 2: TTCACTAACAACGTCATTTATCTAAGATACTCTCGGCTTAAGAAGG
B3: ParaB_mut (probe 3) (dsDNA)
DNA 1: TTTTTATCACTCCTCGTAGAAACCCTATTTATGGGATAACCCAC
DNA 2: GTGGGTTATCCCATAAATAGGGTTTCTACGAGGAGTGATAAAAA

One data set has as its target T1, Fis (Vibrio parahaemolyticus RIMD2210633). Briefly: EMSA. To be noted: 10 mM Tris, 150 mM KCl, 0.1 mM DTT, 0.1 mM EDTA, 5% PEG, pH 7.4, 20 min at room temperature; 30 ng DNA; 6% native gel in 1x TAE at 4 C.
Take “AATCTACTTGTTGTTATAGCCAGAGCTGGTGGGTTATCCCATAAATAGGGTTGCTAAGTTTATGGACAAAAACGTCACTGGGTGTTTTTTGTGTCCTTTTTAACACCTTTATATATTGCTCAAAAATTAAGTGTTTTCGATCATGATTAACG (double strand) [ParaB probe 2]”: the binding entry is “binds”.

For “AGCCTGACGTTGGTAAGGTGCGCTAAAACACCAAAATATGCCGAGTTAAAAGATACCAAAAATCGATGTACTTCCTCTGTAGGAATAGTCCTATTTACATAGCAGGAAACACCTAAAGCAGCGCTTTATTAACGGCTTAATCAACACGTCACATTCCTAAAATGAATTAAATATTTTCAGCTTTTTAGTCGCCTTGTCTTATAGGGAAACACTAGATGTTTTCGAGAGGAAGGCGGAACACATA (double strand) [PlafB]”, the binding entry is “binds”.

As for “CATAGGTTCACCTTTAAGAATTATTGTTTGTGTTATGGTTCACATTTATTTCAGTTACCGGTAACATGTTACCGATAACATGAATAAGATAAACCCATATTTTAAAGTGAATTCAAAAATTGAGATCACGCGCAAATT (double strand) [PgntK probe 1]”, the binding result was “binds”.

Regarding “CCATCCACTGGTAGAGGTGAGTGTTCGCTGTACATATTTGTGCATCCTTGACCATTTGTTAGTGATAAAAATCACAGCGGAAAAATGTAGCAATTTTGTCCATTCATTTAGCTACAGAGGCTATGAAGCAGCTCTCAA (double strand) [ParaB probe 1]”, the binding entry is given as “binds”.

Turning to “CCATTTGAAAAGGGATTGAGTGTTGTTGATAGAGTTTTTTTTACTGGAGATTTGATACGTTAACTGGATTTTTGTAACATTAAAATGGAAGTGTGATTTTGCTCAATAGCACAAAAGTCCAGTCCGGTGT (double strand) [VPA1424 regulatory region (negative control)]”, the binding entry was “binds more weakly”.

With “CTTAATAATAGTTTTATCTATAAACAAACAGTGAGCTTTGTTATAAATTCATTAAAAATTTAACTTTGTATTAATTAGAAAATTCAGCGTCATATTTGTTCAACTGCGACTATTCTTTTTATAACCAAGTAATCTC (double strand) [PscrABC probe 2]”, the binding result is recorded as “binds”.

Regarding “GAGCTCTCCTAGGTACCAACCGTGAAATCCATTTACTGAGGTATTTTTCCTCATTAATTAGCAGTATAGGGTAAAAATATGAAAGCTAATGGATAATCATAAAGTAGTAGTTGGTTTTTTGCTGAGAAAGTGATTAGTAGCAATGTAACAAGTGGCATATTTGCATGCTATTGCATTTTGCAAATGCAATTTGCGAAAGTGCTGGTTAATAATGCGTCGATATGCACCTGGATCTATTAAAAAACGGCTTTTTTAAAGTTGGCACGCATCGTGCTTTATCTAGAG (double strand) [Pqrr4]”, the binding result is on record as “binds”.

Turning to “GCGTTTATCATAAAAATAGTCAATTTAATGAATATTTTAATATGTATTCAGTTGTTTATTGGTTGGAGGCGAAACTGTTGCTTATGTCATCAAATAAGCTAAAAAAGTGGAACTAAAGTCACTTAATGGCAGAGTAAAAAATTAAAG (double strand) [PscrABC probe 1]”, the binding entry was “binds”.

Regarding “TATGTTAAGTTTCATAAAATGGCTTGATGTTTAAATGAACAGTTAATTTTTAGACCATATATAGCGAGATCTAAAGTAGTTCAAACAAATGTACGGTCTAACTCTTAGCTGCGAGAACAAACCACTTGGATATACGCTC (double strand) [PscrABC probe 3]”, the binding result was “binds”.

As to “TCACGCGAATACGCACTTTAATACGTATGTCTAATGTTTATACGCGACCACTTTCGCCTAAAAGTTTAGGTATAGTTGATAATTAGTCGACTTAAGCAATCTATGTACCAAAATCAACGCCAAAATAATGACTCAAAGCTAAATAACAGCACAATCCATTG (double strand) [PflhA]”, the binding entry is listed as “binds”.

In the next data set the target is T2, Fis. Description: EMSA; 10 mM Tris, 150 mM KCl, 0.1 mM DTT, 0.1 mM EDTA, 5% PEG, pH 7.4, 20 min at room temperature; 30 ng DNA; 6% native gel in 1x TAE at 4 C. The conditions noted are these: protein: recombinant; tags: 6xHis-MBP fusion (pMAL-c5x) removed by TEV cleavage; chain copies: 2; blunt.
Turning to B1, the binding result is recorded as “binds”.

Take B2: the binding result is “no binding”.

Turning to B3, the binding result is given as “no binding”.
